Laboratory results: patent US20120065123A1 (published 2012)
Where no end group is shown, it is not given here.

How the values were obtained:
[1] = target: T1, pooled human transferrin (Sigma), biotinylated (human, UniProt P02787 20-698, biotinylated at amines with NHS-LC-LC-Biotin); test: SPR (Biacore A-100), biotinylated transferrin captured on Neutravidin, unpurified peptide injected for 60 s [d]
T1 construct: Captured on Neutravidin on a CM5 chip (Biacore A-100)

[2] = target: T1, pooled human transferrin (Sigma), …; test: SPR (Biacore A-100), biotinylated transferrin captured on Neutravidin, unpurified peptide injected for 60 s [l]
Source text: (§1) A Biacore A-100 Surface Plasmon Resonance (SPR) system was used to measure the binding response of each peptide to several different target proteins immobilized on a gold surface. The A-100 has four different flow cells and within each flow cell are five addressable spots. Therefore four different proteins and a negative control reference can be used per flow cell. Depending on the purpose of the assay, up to 16 different target proteins can be immobilized on a single SPR chip. The instrument is equipped to evaluate up to 10 384-well plates unattended and can process approximately four 384-well plates per day. Sensorgrams are collected from each immobilized protein, so a binding profile for each analyte versus each of the protein targets is generated for each injection. Target proteins were immobilized using a biotin capture approach in which a CM5 chip was activated using standard amine coupling chemistry and Neutravidin was covalently coupled to the chip. Each biotinylated protein was injected over a single spot and the amount of protein captured was measured.

[3] = target: T1, pooled human transferrin (Sigma), …; test: SPR (Biacore A-100), biotinylated transferrin captured on Neutravidin, unpurified peptide injected for 60 s [k]
[4] = target: T1, pooled human transferrin (Sigma), …; test: SPR (Biacore A-100), biotinylated transferrin captured on Neutravidin, unpurified peptide injected for 60 s [b]
Gal80 [5] = target: T2, Gal80 (UniProt P04387 1-435, limits assumed); test: gel shift assay; gel shift assay
T2 construct: Cy3/Cy5 or otherwise fluorescently labelled on arrays; immobilised in SPR and ELISA
T2 sequence (looked up): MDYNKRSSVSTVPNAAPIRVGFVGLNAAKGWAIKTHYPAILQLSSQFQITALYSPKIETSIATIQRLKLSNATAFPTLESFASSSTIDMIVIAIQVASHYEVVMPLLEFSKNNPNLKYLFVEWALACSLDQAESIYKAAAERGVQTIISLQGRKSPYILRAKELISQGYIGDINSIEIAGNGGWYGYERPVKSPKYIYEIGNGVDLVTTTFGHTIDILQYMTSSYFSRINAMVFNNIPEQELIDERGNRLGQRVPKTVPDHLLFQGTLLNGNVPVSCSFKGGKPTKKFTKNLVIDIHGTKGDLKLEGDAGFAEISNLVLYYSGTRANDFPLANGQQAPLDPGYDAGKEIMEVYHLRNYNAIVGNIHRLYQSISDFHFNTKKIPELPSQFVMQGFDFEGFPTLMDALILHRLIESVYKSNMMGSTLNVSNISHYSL

Gal80 [6] = target: T2, Gal80; test: SPR, synbody in solution, surface-bound Gal80; SPR, synbody in solution, surface-bound Gal80
Gal80 [7] = target: T2, Gal80; test: light-directed peptide array, 25 pM labelled GAL80 with 1 mg/mL E. coli lysate; against template BP2
Procedure: Variant peptides in the array were designed to contain both invariable and variable positions. Invariable positions were coupled using standard Fmoc solid-phase synthesis protocols. Briefly, the Fmoc protecting group was removed with 20% piperidine in DMF for 20 minutes. After deprotection, the next Fmoc amino acid was coupled to the N-terminus of the peptide chain (0.1 M Fmoc amino acid, 0.1 M HATU, 0.4 M DIPEA in DMF). Amino acid coupling times were typically 60 minutes. Variable positions in the peptide were coupled using light-directed chemistry. First, the N-terminal Fmoc group was removed from all peptides using 20% piperidine in DMF and the photolabile protecting group MeNPOC—Cl was coupled to the liberated N-terminal amines for 30 minutes. The array was then immersed in photolysis solution containing 30% β-mercaptoethanol, 7% DIPEA in acetonitrile. A photolithographic mask was projected on the substrate using a Digital Mirror Device, to selectively remove the MeNPOC protecting group in the illuminated regions. The substituted FMOC amino acid was added and allowed to couple to the selectively deprotected regions. After coupling, photodeprotection was repeated for different regions on the array and the next amino acid was coupled. This photodeprotection/coupling cycle was repeated for all substituted amino acids at a particular position in the peptide. After all peptides on the array are grown to the desired length a final side-chain deprotection is done using 95% TFA, 2.5% TIPS, 2.5% H₂O for 1 hour.
The chemically diverse set of 10 amino acids {I, D, W, L, E, G, T, S, K, R} were selected as the amino acids to substitute into the four variable positions for a total of 10,000 unique variant peptides. Three replicates were included in the array to produce a total of 30,000 array features. The variant array (including the lead peptide) was synthesized using light-directed synthesis described above.

[8] = target: T1, pooled human transferrin (Sigma), …; test: SPR (Biacore A-100), biotinylated transferrin captured on Neutravidin, unpurified peptide injected for 60 s [g]
[9] = target: T1, pooled human transferrin (Sigma), …; test: SPR (Biacore A-100), biotinylated transferrin captured on Neutravidin, unpurified peptide injected for 60 s [i]
Source text: as §1

Gal80 [10] = target: T2, Gal80; test: SPR with gal80 immobilised on the chip; Kd from on and off rates
[11] = target: T1, pooled human transferrin (Sigma), …; test: SPR (Biacore A-100), biotinylated transferrin captured on Neutravidin, unpurified peptide injected for 60 s [j]
[12] = target: T1, pooled human transferrin (Sigma), …; test: SPR (Biacore A-100), biotinylated transferrin captured on Neutravidin, unpurified peptide injected for 60 s [f]
[13] = target: T1, pooled human transferrin (Sigma), …; test: SPR (Biacore A-100), biotinylated transferrin captured on Neutravidin, unpurified peptide injected for 60 s [c]
Source text: as §1

T1 sequence (P02787 20-698 limits assumed): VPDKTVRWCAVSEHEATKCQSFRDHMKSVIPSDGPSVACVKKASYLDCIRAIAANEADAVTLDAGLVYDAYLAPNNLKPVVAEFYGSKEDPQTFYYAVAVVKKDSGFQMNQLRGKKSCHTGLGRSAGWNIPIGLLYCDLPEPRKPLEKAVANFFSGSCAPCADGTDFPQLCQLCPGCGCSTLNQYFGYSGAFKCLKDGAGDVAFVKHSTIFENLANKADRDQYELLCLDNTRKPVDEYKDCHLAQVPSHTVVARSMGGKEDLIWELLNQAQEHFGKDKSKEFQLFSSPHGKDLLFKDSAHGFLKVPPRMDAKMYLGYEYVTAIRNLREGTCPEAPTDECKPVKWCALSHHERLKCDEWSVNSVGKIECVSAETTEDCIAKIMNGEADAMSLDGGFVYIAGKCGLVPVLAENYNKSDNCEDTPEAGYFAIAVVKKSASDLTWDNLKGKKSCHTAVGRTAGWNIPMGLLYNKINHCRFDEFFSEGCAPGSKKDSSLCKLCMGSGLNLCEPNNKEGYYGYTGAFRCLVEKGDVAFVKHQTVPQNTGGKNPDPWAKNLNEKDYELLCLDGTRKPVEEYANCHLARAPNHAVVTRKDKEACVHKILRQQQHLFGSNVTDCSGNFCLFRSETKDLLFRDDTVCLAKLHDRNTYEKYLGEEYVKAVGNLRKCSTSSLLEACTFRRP

B1: transferrin binding peptide of FIG. 60D (peptide)
peptide: DFLWSKSGILSHASWNHGSC
notes: Unpurified library peptide
[1]
  binding result: binds

B2: transferrin binding peptide of FIG. 60L (peptide)
peptide: TEDNDYMVVSMVVTMEPGSC
notes: Unpurified library peptide
[2]
  binding result: binds

B3: transferrin binding peptide of FIG. 60K (peptide)
peptide: QENDQQSFGLGGMMGQAGSC
notes: Unpurified library peptide
[3]
  binding result: binds

B4: transferrin binding peptide of FIG. 60B (peptide)
peptide: NIRMLLRFTVFPAQKLIGSC
notes: Unpurified library peptide
[4]
  binding result: binds

B5: linker-optimized BP1/BP2 DNA-linked synbody (BP1 on the template strand, BP2 at position 13 from the 3' end of the variable strand) (designed binder)
peptide 1: GTEKGTSGWLKTGSC
peptide 2: EGEWTEGKLSLRGSC
modifications: not fully specified (some residues, bridges); also: two DNA strands, each joined to a peptide C-terminal Cys through SMCC, double-stranded DNA linker
notes: Two peptides held by a double-stranded DNA linker; for ELISA a third psoralen-crosslinked strand carried biotin and streptavidin-HRP; also called gal80 synbody; the linker-optimized synbody
Gal80 [5]
  Kd: ~100 nM
Gal80 [6]
  Kd: 91 nM

B6: BP2 variant EGEITEGKGSKKGSC (peptide)
peptide: EGEITEGKGSKKGSC
Gal80 [7]
  Fold Enhancement: 9.87 fold

B7: BP2 variant EGEITEGKLSKKGSC (peptide)
peptide: EGEITEGKLSKKGSC
Gal80 [7]
  Fold Enhancement: 9.72 fold

B8: transferrin binding peptide of FIG. 60G (peptide)
peptide: DNSRRSAKQRIFMHVDLGSC
notes: Unpurified library peptide
[8]
  binding result: binds

B9: transferrin binding peptide of FIG. 60I (peptide)
peptide: AMMRMDMAGLNKIVFHQGSC
notes: Unpurified library peptide
[9]
  binding result: binds

B10: BP1 on dsDNA (peptide)
peptide: GTEKGTSGWLKTGSC
modifications: chain 1 pos 15: Cys thiol joined via SMCC maleimide to an amine-modified cytosine of the double-stranded DNA linker, which the letters cannot carry
notes: also called BP1 alone conjugated to DNA linker
Gal80 [10]
  Kd: 482 nM

B11: BP2 variant EGEITEGKKSKLGSC (peptide)
peptide: EGEITEGKKSKLGSC
Gal80 [7]
  Fold Enhancement: 11.1 fold

B12: BP2 variant EGEWTEGKKSKLGSC (peptide)
peptide: EGEWTEGKKSKLGSC
Gal80 [7]
  Fold Enhancement: 10.7 fold

B13: BP2 variant EGEWTEGKKSKIGSC (peptide)
peptide: EGEWTEGKKSKIGSC
Gal80 [7]
  Fold Enhancement: 10.4 fold

B14: BP2 variant EGEWTEGKKSKEGSC (peptide)
peptide: EGEWTEGKKSKEGSC
Gal80 [7]
  Fold Enhancement: 10.7 fold

B15: BP2 variant EGEITEGKKSKGGSC (peptide)
peptide: EGEITEGKKSKGGSC
Gal80 [7]
  Fold Enhancement: 10.8 fold

B16: BP2 variant EGEDTEGKKSKIGSC (peptide)
peptide: EGEDTEGKKSKIGSC
Gal80 [7]
  Fold Enhancement: 10.4 fold

B17: BP2 variant EGEITEGKKSKEGSC (peptide)
peptide: EGEITEGKKSKEGSC
Gal80 [7]
  Fold Enhancement: 10.9 fold

B18: BP2 variant EGEITEGKKSKRGSC (peptide)
peptide: EGEITEGKKSKRGSC
Gal80 [7]
  Fold Enhancement: 10.5 fold

B19: BP2 variant EGEWTEGKKSKTGSC (peptide)
peptide: EGEWTEGKKSKTGSC
Gal80 [7]
  Fold Enhancement: 10.5 fold

B20: BP2 variant EGEKTEGKKSKTGSC (peptide)
peptide: EGEKTEGKKSKTGSC
Gal80 [7]
  Fold Enhancement: 8.5 fold

B21: BP2 variant EGEITEGKKSKTGSC (peptide)
peptide: EGEITEGKKSKTGSC
Gal80 [7]
  Fold Enhancement: 10.6 fold

B22: BP2 variant EGEDTEGKKSKRGSC (peptide)
peptide: EGEDTEGKKSKRGSC
Gal80 [7]
  Fold Enhancement: 10.4 fold

B23: BP2 variant EGEDTEGKKSKEGSC (peptide)
peptide: EGEDTEGKKSKEGSC
Gal80 [7]
  Fold Enhancement: 10.1 fold

B24: BP2 variant EGEKTEGKKSKEGSC (peptide)
peptide: EGEKTEGKKSKEGSC
Gal80 [7]
  Fold Enhancement: 9.7 fold

B25: BP2 variant EGEITEGKKSKSGSC (peptide)
peptide: EGEITEGKKSKSGSC
Gal80 [7]
  Fold Enhancement: 9.91 fold

B26: BP2 variant EGEKTEGKKSKLGSC (peptide)
peptide: EGEKTEGKKSKLGSC
Gal80 [7]
  Fold Enhancement: 9.81 fold

B27: BP2 variant EGEDTEGKKSKGGSC (peptide)
peptide: EGEDTEGKKSKGGSC
Gal80 [7]
  Fold Enhancement: 10.8 fold

B28: BP2 variant EGEDTEGKKSKLGSC (peptide)
peptide: EGEDTEGKKSKLGSC
Gal80 [7]
  Fold Enhancement: 10.4 fold

B29: BP2 variant EGEITEGKKSKIGSC (peptide)
peptide: EGEITEGKKSKIGSC
notes: Made in place on a glass slide by light-directed synthesis
Gal80 [7]
  Fold Enhancement: 11.3 fold

B30: BP2 variant EGEWTEGKKSKGGSC (peptide)
peptide: EGEWTEGKKSKGGSC
Gal80 [7]
  Fold Enhancement: 11.1 fold

B31: BP2 variant EGEWTEGKKSKRGSC (peptide)
peptide: EGEWTEGKKSKRGSC
Gal80 [7]
  Fold Enhancement: 11 fold

B32: BP2 variant EGEKTEGKKSKGGSC (peptide)
peptide: EGEKTEGKKSKGGSC
Gal80 [7]
  Fold Enhancement: 9.24 fold

B33: BP2 variant EGEDTEGKKSKTGSC (peptide)
peptide: EGEDTEGKKSKTGSC
Gal80 [7]
  Fold Enhancement: 10.2 fold

B34: BP2 on dsDNA (peptide)
peptide: EGEWTEGKLSLRGSC
modifications: chain 1 pos 15: Cys thiol joined via SMCC maleimide to an amine-modified cytosine of the double-stranded DNA linker, which the letters cannot carry
notes: also called BP2 alone conjugated to DNA linker
Gal80 [10]
  Kd: 982 nM

B35: transferrin binding peptide of FIG. 60J (peptide)
peptide: DRDTPWETTNKTEEGIEGSC
notes: Unpurified library peptide
[11]
  binding result: binds

B36: transferrin binding peptide of FIG. 60F (peptide)
peptide: KMRTITYYHLQAILKQRGSC
notes: Unpurified library peptide
[12]
  binding result: binds

B37: transferrin binding peptide of FIG. 60C (peptide)
peptide: WMDDIDAPQDEWWVFHHGSC
notes: Unpurified library peptide
[13]
  binding result: binds
